Measurements reported in patent US5919901, “Neuropeptide Y receptor Y5 and nucleic acid sequences” (Bayer Corporation, dated 1999).
Residue numbers refer to the chain shown, from its start. Ends that are not written are not given here.

Columns and labels:
[1] = molecular target: T1, rat NPY Y5 receptor, clone Y217.24.13.6B (rat); assay: competition with [125I]PYY, membranes of transfected COS-7 cells; first individual value in brackets
T1 chain: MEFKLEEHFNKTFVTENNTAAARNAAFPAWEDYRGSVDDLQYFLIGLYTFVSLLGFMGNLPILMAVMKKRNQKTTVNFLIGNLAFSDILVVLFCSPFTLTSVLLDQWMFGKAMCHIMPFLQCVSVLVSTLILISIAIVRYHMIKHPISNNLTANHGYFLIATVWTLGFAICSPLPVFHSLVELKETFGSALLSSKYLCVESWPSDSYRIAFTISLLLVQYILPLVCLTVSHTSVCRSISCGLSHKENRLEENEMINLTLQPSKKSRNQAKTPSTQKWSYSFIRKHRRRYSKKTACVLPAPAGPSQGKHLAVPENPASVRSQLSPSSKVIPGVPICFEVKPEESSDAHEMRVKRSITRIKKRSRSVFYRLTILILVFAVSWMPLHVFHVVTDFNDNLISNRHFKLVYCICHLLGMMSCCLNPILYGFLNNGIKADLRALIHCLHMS
Description: (§1) All other peptides were purchased from either Peninsula (Belmont, Calif.) or Bachem (Torrance, Calif.).

[2] = molecular target: T1, rat NPY Y5 receptor, clone Y217.24.13.6B; assay: competition with [125I]PYY, membranes of transfected COS-7 cells; second individual value in brackets
Description: as §1

[3] = molecular target: T1, rat NPY Y5 receptor, clone Y217.24.13.6B; assay: competition with [125I]PYY, membranes of transfected COS-7 cells
Description: as §1

[4] = molecular target: T2, rat NPY Y5 receptor, clone Y861 (rat); assay: as above
T2 chain: T1 chain with P61L
Description: as §1

[5] = molecular target: T3, rat NPY Y5 receptor, clone Y555 (rat); assay: competition with [125I]PYY, membranes of transfected COS-7 cells; average of two experiments
T3 chain: T1 chain with P61L
Description: as §1

[6] = molecular target: T3, rat NPY Y5 receptor, clone Y555; assay: competition with [125I]PYY, membranes of transfected COS-7 cells; first individual value in brackets
Description: as §1

[7] = molecular target: T3, rat NPY Y5 receptor, clone Y555; assay: competition with [125I]PYY, membranes of transfected COS-7 cells; second individual value in brackets
Description: as §1

YYSALRHYINLITRQRY (ends and bridges not checked) [r/h(20-36)NPY] gave an IC50 [1] of 387 nM and an IC50 [2] of 332 nM.

SALRHYINLITRQRY (ends and bridges not checked) [r/h(22-36)NPY] gave an IC50 [3] of over 1000 nM.

For ARYYSALRHYINLITRQRY (ends and bridges not checked) [p(18-36)NPY], the IC50 [1] was 147 nM and the IC50 [2] was 107 nM.

Work on APLEPVYPGDNATPEQMAQYAADLRRYINMLTRPRY [hPP] yielded an IC50 [4] of 4.9 nM.

Binder SPEELSRYYASLRHYLNLVTRQRY [r(13-36)PYY] has an IC50 [3] of 13.2 nM, an IC50 [4] of 73 nM and an IC50 [5] of 32 nM. The IC50 [6] was 9.6 nM and the IC50 [7] was 54 nM.

In the case of HYINLITRQRY (ends and bridges not checked) [r/h(26-36)NPY], the IC50 [3] is reported as over 1000 nM.

APLEPMYPGDYATHEQRAQYETQLRRYINTLTRPRY [rPP] was tested, and the IC50 [4] was 325 nM.
